The record followed here is patent US11090383 (CENTRE FOR DRUG RESEARCH AND DEVELOPMENT, dated 2021).

The target of assay [1] is WT Podocalyxin (on normal cells and tissues) (human) (UniProt O00592). In words: flow cytometry, live 293 cells. (In general: In flow cytometry, cells or beads pass a laser one at a time.)
Assay [2] shares this target. In words: flow cytometry, live HUVEC cells.
A further assay concerns the target cPodo/CHO. In words: flow cytometry, live cPodo/CHO cells; Mock/CHO with this antibody: 2%.
The target in assay [3] is T1, human podocalyxin as displayed on tumor cells (A172, SKOV3, MIA PaCa-2, MDA-MB-231, OVCAR10) (human, UniProt O00592 23-558, post-translational glycan recognised by Podo447 (O-linked, with beta-GalNAc that may be terminal; site not stated)).
T1 construct: Endogenous podocalyxin of tumor cell lines, on cells, in lysates or in cryosections; also called tumor-associated Podocalyxin
T1 chain: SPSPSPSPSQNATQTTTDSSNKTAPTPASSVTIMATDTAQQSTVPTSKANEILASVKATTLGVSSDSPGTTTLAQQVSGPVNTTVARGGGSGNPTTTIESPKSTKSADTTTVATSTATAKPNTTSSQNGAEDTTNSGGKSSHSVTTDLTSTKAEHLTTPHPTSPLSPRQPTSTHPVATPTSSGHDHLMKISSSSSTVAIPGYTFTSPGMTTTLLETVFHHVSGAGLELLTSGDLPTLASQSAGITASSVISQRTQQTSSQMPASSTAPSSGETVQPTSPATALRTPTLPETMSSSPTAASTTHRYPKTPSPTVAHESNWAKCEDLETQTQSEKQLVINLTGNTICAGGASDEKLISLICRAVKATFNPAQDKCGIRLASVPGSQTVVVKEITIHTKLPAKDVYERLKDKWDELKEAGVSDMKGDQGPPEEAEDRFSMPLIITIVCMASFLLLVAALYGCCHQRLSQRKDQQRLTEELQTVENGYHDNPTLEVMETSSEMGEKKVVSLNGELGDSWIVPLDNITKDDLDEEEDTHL
In words: flow cytometry, titrated antibody on A172 cells, four-parameter fit. As for the experimental part: (§1) Briefly, A172 cells were detached using cell dissociation solution (Sigma-C5914) and incubated with titrated purified antibodies in 96-well V-bottom plates. Antibody binding was detected using a goat anti-human IgG-Fc-Alexa 647 secondary antibody (Jackson 109-605-098) and the cells were analyzed on the Intellicyt high throughput flow cytometer (HTFC).
Table immediately above: Statistical data using Graphpad Prism analysis software representing the data presented above. Values were calculated using a variable slope (four parameters) non-linear regression analysis.

The target in assay [4] is T1, human podocalyxin as displayed on tumor …. In words: flow cytometry titration on A172 cells, goat anti-human IgG-Fc-Alexa 647. Here is the method: as §1
Assay [5] has the same target. In words: KinExA, titrated A172 cells with constant antibody, free antibody measured. Here is the method:
Example 13—Determination of Affinity of PODO447 and PODO83 for Cellular PODXL Antigens by Kinetic Exclusion Assay The concentration dependence of free anti-podo antibody as a function of A172 cell number was determined using a Sapidyne KinExA 3200. […] A172 cells and cell bound antibodies were then isolated by centrifugation. Supernatant containing free, unbound antibody was then transferred to a new tube. In the KinExA, a new column of PMMA beads coated with a Gt anti-IgG-Fc capture antibody is packed for each sample assayed. The supernatant containing free unbound antibody is passed over the column. The amount of free antibody captured on the PMMA beads was then measured using a Gt anti-IgG-Fc-A647. The concentration of free antibody over the entire 12 step dilution series was then used to determine the antibody Kd's using the standard Kd template in the KineExA Pro Software.
Table immediately above: Kinetic exclusion assay (KinExA) affinity determination of humanized and rabbit/human chimeric antibodies to Podocalyxin endogenously expressed on A172 cells. A172 cells were titrated and incubated with constant antibody concentrations and allowed to reach equilibrium with a 16 hour incubation. Free, unbound antibody in the supernatant was then captured on the KinExA 3200 using poly(methyl methacrylate) (PMMA) beads coated with goat anti-human IgG-Fc capture antibodies and detected with goat anti-human IgG-Fc-alexa 647 label.
On the technique in general: A kinetic exclusion assay measures how much of one partner remains free in solution.

Assay [6] shares this target. As to the kind of experiment: flow cytometry, MDA.MB.231 Podo KD. Here is the method:
(§2) Cells were cultured under continuous antibiotic selection with puromycin (4 µg/ml; Invitrogen, Burlington, ON) and G418 (lmg/ml; Calbiochem, Darmstadt, Germany). shRNA constructs were generously provided by Dr. John Wilkins (University of Manitoba, Winnipeg, MB) and the infections were performed by Michelle Turvey and Dr. Shaun McColl (University of Adelaide, Australia). 2.5×10^5 MIA PaCa-2 cells were seeded per well in a 6-well TC-Treated plate (Costar, cat#3516). After incubation overnight, cells were transfected with 10 nM siRNA following the guidelines of the Oligofectamine protocol (cat#12252-011, Invitrogen, Burlington, ON). Pre-Design and validated siRNA (PODXL siRNA, cat# s10770; Negative control No. 1 siRNA, cat#4390843) were obtained from Ambion (Thermo Fisher Scientific, Burlington, ON). Knock-downs were assessed by flow cytometry two days after transfection.
(§3) Sub-confluent cell lines were washed once with Ca^2+ and Mg^2+ free HBSS (Invitrogen, Carlsbad, Calif.) harvested with 0.25% Trypsin/EDTA (Invitrogen, Carlsbad, Calif.). Cells were quenched with normal growth media and centrifuged at 300×g for 5 minutes. Cells were washed once with FACS buffer (2% FBS, 2 mM EDTA, PBS, 0.05% NaAzide). Cells were blocked for 20 minutes at 4° C. in Blocking Buffer (2% rat serum, 2 µg/ml dilution of 2.4G2 (anti-CD16/CD32)) in a 96 well 'v' bottom plate. […]

For assay [7] the target is unchanged. As to the kind of experiment: flow cytometry, MIA PaCa-2 PODXL siRNA. As for the experimental part: as §2, §3
The target of assay [8] is WT Podocalyxin (on normal cells and tissues) (human) (UniProt O00592). As to the kind of experiment: IHC, Normal Kidney.
Assay [9] shares this target. In words: IHC, Normal Cerebellum; Weak and Strong columns hold '-'.
For assay [10], the target named is T1, human podocalyxin as displayed on tumor …. In words: KinExA kinetic exclusion assay, antigen: MDA-MB-231 Cells.

For Control Rb/HuIgG1 (antibody), the values for the Live cell GeoMean FL in assay [1] and in [2] were 446 and 489, respectively.

As for MsIgG2a (antibody), in the assay with cPodo/CHO, the % Shifting (FL4) Live Cells was 1%. The Live cell GeoMean FL came out at 556 in assay [1] and 484 in [2].

B1: Humanized Podo447 (humanized_podo447VH_hIgG1C with humanized_podo447VL6_hIgkC) (antibody, V domains shown)
VH: EVQLVESGGGLVQPGRSLRLSCTASGFSLSGYQMNWVRQAPGKGLEWVGYIWSDGGTDYTASVKGRFTISRDGSKSIAYLQMNSLKTEDTAVYYCAREGYWLGAFDPWGQGTSVTVSA
VL: AAQLTQSPSPLSASVGDRVTITCQSSQSVHHKNDLAWYQQKPGKAPKLLIYYTSTLASGVPSRFSGSGSGTDFTLTISSLQPEDFATYYCAGVYEGSSDNRAFGGGTKVEIKR
notes: The labels R0943_A046 and CDRD-0103-001 are tied to this molecule only by the word 'Humanized'; also called R0943_A046 (Humanized); CDRD-0103-001 (Humanized)
A word on the EC50 (read off the curve): it is the concentration at which the effect is half-maximal. As usually defined, the Kd is the equilibrium constant for the complex coming apart. A high value points to lower affinity. B1 had a LogIC50 in [3] of 2.09. In addition, in [4], the “EC50 (read off the curve)” value is around 100 ng/mL. Besides, in assay [5], the Kd is 0.0144 nM, the “Kd High” value turned out to be 45.9 pM and the “Kd Low” value was 4.59 pM.

B2: Podo447 antibody, recombinant rabbit/human IgG1 chimera (antibody, V domains shown)
VH: QSLEESGGRLVTPGTPLTLTCTASGFSLSGYQMNWVRQAPGKGLEWIGYIWSDGGTDYASWAKGRFTISKTSSTTVDLKMTSLTTEDTATYFCAREGYWLGAFDPWGPGTLVTVSS
VL: AAVLTQTPSPVSAAVGATVSVSCQSSQSVHHKNDLAWFQQKPGQPPKLLIYYTSTLASGVPSRFKGSGSGTQFTLTISDLECDDAATYYCAGVYEGSSDNRAFGGGTEVVVKR
notes: also called anti-Podo
For B2, the values for the Live cell GeoMean FL in [1] and in assay [2] were 6710 and 3970, respectively. Also, the “decrease of binding on podocalyxin knockdown (fold)” value in assay [6] worked out at 2.5 X; in assay [7] it was 10 X. The IHC score Negative, cases of total in [8] is 98%; in assay [9], 0 of 10 cases. Further, the IHC score Weak, cases of total in assay [8] worked out at 1.9%. Moreover, the LogIC50 in assay [3] was found to be 2.28. For the same molecule, the “EC50 (read off the curve)” value in assay [4] was around 200 ng/mL. Also, the Kd in [10] came out at 0.189 nM; in assay [5] it was 0.00757 nM. The “Kd High” value in assay [10] was found to be 52.4 nM; in assay [5], 24.9 pM. Further, the “Kd Low” value was 42.5 pM in assay [10] and 2.3 pM in assay [5].
